Test results from US20250154278A1 (JANUX THERAPEUTICS, published 2025).
Residue numbers refer to the chain shown, from its start. Names may count otherwise. Where two headings read alike, the source gives them in different places.

T1: Human TROP2 full length, on tumor cells (HCT116, MDAMB231, NCI-H292) (human, UniProt P09758 31-323)
T1 sequence: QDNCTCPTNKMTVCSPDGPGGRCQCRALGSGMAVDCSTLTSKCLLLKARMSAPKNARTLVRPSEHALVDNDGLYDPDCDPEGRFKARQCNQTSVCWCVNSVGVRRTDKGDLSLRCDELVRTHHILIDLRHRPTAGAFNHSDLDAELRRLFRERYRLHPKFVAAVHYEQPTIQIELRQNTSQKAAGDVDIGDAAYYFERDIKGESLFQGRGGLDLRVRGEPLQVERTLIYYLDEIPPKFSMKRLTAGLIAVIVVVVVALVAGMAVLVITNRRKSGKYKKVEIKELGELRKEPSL

T2: Cynomolgus monkey TROP2 full length, on recombinant HEK293 cells (cynomolgus monkey, UniProt P09758 31-323 (human entry))
T2 chain: T1 sequence with M32V, S63N, I200V, M262V, T268S

T3: Cyno CD3 (Antigen was biotinylated for capture on neutravidin plates; the site of biotin and any tag are not stated.)
T3 construct: also called cynomolgus monkey CD3
T3 chain: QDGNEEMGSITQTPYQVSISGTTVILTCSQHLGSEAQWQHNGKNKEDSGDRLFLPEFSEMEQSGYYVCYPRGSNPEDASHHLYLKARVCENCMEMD

T4: Human TROP2 ECD (31-274 AA), biotinylated (human, UniProt P09758 31-274, biotinylated (site not stated))
T4 construct: the entry is already residues 31-274; also called Human TROP2-biotin; hTROP2-Biotin
T4 sequence: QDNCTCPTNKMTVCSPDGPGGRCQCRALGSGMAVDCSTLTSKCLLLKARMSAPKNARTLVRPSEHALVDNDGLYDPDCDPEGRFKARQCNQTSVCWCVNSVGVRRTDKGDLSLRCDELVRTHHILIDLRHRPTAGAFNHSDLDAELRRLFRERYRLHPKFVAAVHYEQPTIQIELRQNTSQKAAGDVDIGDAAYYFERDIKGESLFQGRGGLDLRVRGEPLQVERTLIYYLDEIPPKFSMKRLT

B1: TCE-29 (anti-CD3 scFv S235A, anti-TROP2 wt) (bispecific antibody)
light: DIQLTQSPSSLSASVGDRVSITCKASQDVSIAVAWYQQKPGKAPKLLIYSASYRYTGVPDRFSGSGSGTDFTLTISSLQPEDFAVYYCQQHYITPLTFGAGTKVEIKRTVAAPSVFIFPPSDEQLKSGTASVVCLLNNFYPREAKVQWKVDNALQSGNSQESVTEQDSKDSTYSLSSTLTLSKADYEKHKVYACEVTHQGLSSPVTKSFNRGEC
heavy: not shown
B2: TCE-30 (anti-CD3 scFv N236A, anti-TROP2 wt) (bispecific antibody)
light: B1 light
heavy: not shown
B3: TCE-31 (anti-CD3 scFv R237A, anti-TROP2 wt) (bispecific antibody)
light: B1 light
heavy: not shown
B4: TCE-32 (anti-CD3 scFv W238A, anti-TROP2 wt) (bispecific antibody)
light: B1 light
heavy: not shown
B5: TCE-33 (anti-CD3 scFv V239A, anti-TROP2 wt) (bispecific antibody)
light: B1 light
heavy: not shown
B6: TCE-36 (anti-CD3 scFv with N30Q, I109V, G172A, V231A; anti-TROP2 wt) (bispecific antibody)
light: B1 light
heavy: not shown
B7: TCE-37 (anti-CD3 scFv wt, anti-TROP2 HC F108A) (bispecific antibody)
light: B1 light
heavy: not shown
B8: TCE-38 (anti-CD3 scFv H101A, anti-TROP2 HC F108A) (bispecific antibody)
light: B1 light
heavy: not shown
B9: TCE-42 (anti-CD3 scFv with N30Q, I109V, G172A, V231A; anti-TROP2 HC F108A) (bispecific antibody)
light: B1 light
heavy: not shown
B10: TCE-43 (anti-CD3 scFv wt, anti-TROP2 HC D109A) (bispecific antibody)
light: B1 light
heavy: not shown
B11: TCE-46 (bispecific antibody)
light chain (anti-TROP2 LC wt): B1 light
heavy chain (anti-CD3 scFv F240A + linker + anti-TROP2 D109A HC): not shown
notes: also called anti-CD3 scFv (F240A) + linker + anti-TROP2 (D109A) HC; anti-TROP2 LC wt
B12: TCE-35 (anti-CD3 scFv with P41S, A49G, N87S, L150F, T151S, G163R, P175A, K181T, T200V, A202D, L208I, G211N, L217I, S218T, V220A, P222A, E223D, A226S, E227D; … (bispecific antibody)
light: B1 light
heavy: EVQLVESGGGLVQPGGSLKLSCAASGFTFNKYAMNWVRQASGKGLEWVGRIRSKYNNYATYYADSVKDRFTISRDDSKNTAYLQMNSLKTEDTAVYYCVRHGNFGNSYISYWAYWGQGTLVTVSSGGGGSGGGGSGGGGSQTVVTQEPSFSVSPGGTVTLTCRSSTGAVTSGNYANWVQQTPGQAPRGLIGGTKFLAPGVPDRFSGSILGNKAALTITGAQADDESDYYCVLWYSNRWVFGGGTKLTVLGGGGSQVQLQQSGSELKKPGASVKVSCKASGYTFTNYGMNWVKQAPGQGLKWMGWINTYTGEPTYTDDFKGRFAFSLDTSVSTAYLQISSLKADDTAVYFCARGGFGSSYWYFDVWGQGSLVTVSSASTKGPSVFPLAPSSKSTSGGTAALGCLVKDYFPEPVTVSWNSGALTSGVHTFPAVLQSSGLYSLSSVVTVPSSSLGTQTYICNVNHKPSNTKVDKKVEPKSC

What was measured:
[1] = molecular target: T5, human CD3 epsilon, biotinylated (human, UniProt P07766 23-126, limits assumed, biotinylated (site not stated)); test: BLI, CD3e-biotin on sensor (summary)
T5 construct: Printed in places as CD36, CD38, CD3c or CD3&; also called CD3e-bio; human CD3e-biotin

[2] = molecular target: T5, human CD3 epsilon, biotinylated; test: BLI, CD3e-biotin on sensor, 50 nM TCE
[3] = molecular target: T1, Human TROP2 full length, on tumor cells …; test: cell-based or functional assay
[4] = molecular target: T1, Human TROP2 full length, on tumor cells …; test: cell-based or functional assay; remark: listed apart in the source
[5] = molecular target: T1, Human TROP2 full length, on tumor cells …; test: cell-based or functional assay; remark: listed apart in the source
[6] = molecular target: T1, Human TROP2 full length, on tumor cells …; test: cell-based or functional assay; remark: listed apart in the source
[7] = molecular target: T2, Cynomolgus monkey TROP2 full length, on …; test: cell-based or functional assay
Cyno CD3 = molecular target: T3, Cyno CD3; test: Cyno CD3 binding ELISA
[8] = molecular target: T4, Human TROP2 ECD (31-274 AA), …; test: TROP2 binding ELISA, biotinylated TROP2 on neutravidin plates
[9] = molecular target: T5, human CD3 epsilon, biotinylated; test: CD3 binding ELISA

T5 sequence (P07766 23-126 limits assumed): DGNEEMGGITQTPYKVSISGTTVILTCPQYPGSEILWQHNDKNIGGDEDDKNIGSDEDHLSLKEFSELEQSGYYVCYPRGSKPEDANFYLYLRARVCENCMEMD

Binder	CD3 Octet response [1]	CD3 t1/2 [1]	Kd [2]	Response [2]	other results
B1	0.68	3.64 min	3.41 nM	0.682	Kd [1]: 3.41 nM
B2	0.65	2.45 min		0.65	
B3	0.73	2.67 min	6.51 nM	0.728	Kd [1]: 6.51 nM
B4	0.07		31 nM	0.0683	H292 Cytotox EC50 [3]: > 1 nM; Kd [1]: 31 nM
B5	0.74	4.26 min		0.742	
B6			9.11 nM	0.931	H292 Cytotox EC50 [4]: 0.0021 nM
B7					HCT116 Cytotox EC50 [5]: 0.109 nM; H292 Cytotox EC50 [6]: 0.005 nM; CynoTROP2 + HEK293 cells Cytotox EC50 [7]: 0.2 pM; EC50 (Cyno CD3): 0.184 nM; EC50 [8]: 1.15 nM
B8					EC50 [8]: 1.28 nM
B9					EC50 (Cyno CD3): 0.354 nM
B10					H292 Cytotox EC50 [6]: 0.001 nM; CynoTROP2 + HEK293 cells Cytotox EC50 [7]: 0.1 pM; EC50 [8]: 1.07 nM
B11					EC50 [9]: 1.09 nM
B12					H292 Cytotox EC50 [4]: 0.0005 nM
